Reference: PMC10156733, “N-Formimidoylation/-iminoacetylation modification in aminoglycosides requires FAD-dependent and ligand-protein NOS bridge dual chemistry” (Nature Communications, 2023)

Legend:
[1] = test system: NCCCC(N)CC(=O)NC1C(N=C2NC3C(=O)NCC(O)C3N2)OC(CO)C(OC(N)=O)C1O; assay: LC-MS of ST-F consumption; format: biochemical, Streptomyces luteocolor; conditions: glycine + ST-F, ST-F varied 25-500 μM, 100 mM sodium phosphate pH 8, 37 °C, crystal complex with glycine
Orf1 [2] = molecular target: T1, Orf1 (Streptomyces luteocolor, UniProt A0A125SZC1, R342A); assay: isothermal titration calorimetry; format: binding
T1 construct: full length, 491 residues; pET28a, His-tagged (Ni-NTA), E. coli BL21(DE3); tetramer with FAD in each chain; peptide AFAC281GLHLVPR
Text: isothermal titration calorimetry on Orf1 | held the same ST-F binding affinity as the wild type

Orf1 [3] = molecular target: T2, Orf1 (Streptomyces luteocolor, UniProt A0A125SZC1); assay: isothermal titration calorimetry; format: binding
T2 construct: full length, 491 residues; pET28a, His-tagged (Ni-NTA), E. coli BL21(DE3); tetramer with FAD in each chain; peptide AFAC281GLHLVPR
T2 sequence (A0A125SZC1 1-491): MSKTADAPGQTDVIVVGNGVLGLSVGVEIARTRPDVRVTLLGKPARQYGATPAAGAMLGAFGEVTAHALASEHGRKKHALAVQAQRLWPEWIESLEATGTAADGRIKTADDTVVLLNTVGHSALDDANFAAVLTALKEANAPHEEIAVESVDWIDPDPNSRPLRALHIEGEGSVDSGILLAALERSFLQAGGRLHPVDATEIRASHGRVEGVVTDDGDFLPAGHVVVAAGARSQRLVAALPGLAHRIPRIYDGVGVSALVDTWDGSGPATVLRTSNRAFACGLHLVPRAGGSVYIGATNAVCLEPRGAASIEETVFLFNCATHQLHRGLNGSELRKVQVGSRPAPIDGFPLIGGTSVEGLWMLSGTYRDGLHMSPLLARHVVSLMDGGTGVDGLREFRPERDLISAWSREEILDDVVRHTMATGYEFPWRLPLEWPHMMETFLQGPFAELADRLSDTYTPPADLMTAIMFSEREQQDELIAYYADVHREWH
Text: isothermal titration calorimetry on Orf1 | binding affinities of ST-F versus Orf1 wild-type or mutants were estimated

Orf1 [4] = molecular target: T3, Orf1 (Streptomyces luteocolor, UniProt A0A125SZC1, E312A); assay: isothermal titration calorimetry; format: binding
T3 construct: full length, 491 residues; pET28a, His-tagged (Ni-NTA), E. coli BL21(DE3); tetramer with FAD in each chain; peptide AFAC281GLHLVPR

[5] = molecular target: T4, AAC(6’)-Ie-APH(6”)-Ia; aac(6’)-Ie-aph(2”)-Ia (Staphylococcus aureus, UniProt P0A0C1); assay: in vitro N-acetylation assay; format: biochemical; conditions: acetylation only to some extent
T4 construct: gene aacA-aphD; synthetic gene, recombinant

Orf1 [6] = molecular target: T2, Orf1; assay: LC-MS of denatured protein; X-ray crystal structure; format: binding; conditions: prosthetic group, copurified
[7] = substrate: NCCCC(N)CC(=O)NC1C(N=C2NC3C(=O)NCC(O)C3N2)OC(CO)C(OC(N)=O)C1O; assay: LC-MS of ST-F consumption; format: biochemical, Streptomyces luteocolor; conditions: glycine + ST-F, ST-F varied 25-500 μM, 100 mM sodium phosphate pH 8, 37 °C
purified protein = substrate: NCC(=O)O; assay: purified protein; format: biochemical, Streptomyces luteocolor; conditions: single substrate glycine (oxidation phase), 100 mM sodium phosphate pH 8, crystal complex also shows covalent glycine imine-N-O-S adduct at C281

Orf1 (Streptomyces luteocolor; F316A)
Km [1]: 190 µM | kcat [1]: 0.119 s⁻¹

NCCCC(N)CC(=O)NC1C(N=C2NC3C(=O)NCC(O)C3N2)OC(CO)C(OC(N)=O)C1O (centres unmarked) [compound 7, ST-F]
Kd (Orf1 [2]): 14.3 µM | Kd (Orf1 [3]): 11.3 µM | Kd (Orf1 [4]): 55.2 µM

NCC(=O)N[C@@H]1[C@H](O)[C@@H](OC(N)=O)[C@@H](CO)O[C@H]1N=C1N[C@@H]2[C@H](O)CNC(=O)[C@H]2N1 [compound 4, glycylthricin]
in vitro N-acetylation assay [5]: inactivated glycylthricin by N-acetylation to some extent in in vitro assay

Cc1cc2nc3c(=O)[nH]c(=O)nc-3n(C[C@H](O)[C@H](O)[C@H](O)COP(=O)(O)OP(=O)(O)OC[C@H]3O[C@@H](n4cnc5c(N)ncnc54)[C@H](O)[C@@H]3O)c2cc1C [FAD]
LC-MS of denatured protein; X-ray crystal structure (Orf1 [6]): This yellow cofactor was determined to be flavin adenine dinucleotide (FAD)

B1: Orf1 (Streptomyces luteocolor) (protein)
chain: T2 sequence (A0A125SZC1 1-491)
notes: full length, 491 residues; pET28a, His-tagged (Ni-NTA), E. coli BL21(DE3); tetramer with FAD in each chain; peptide AFAC281GLHLVPR
Km [7]: 196 µM | kcat [7]: 0.0513 s⁻¹ | Km (purified protein): 202 µM | kcat (purified protein): 0.0123 s⁻¹
